Data set [1] relates to HeLa Kyoto. Kind of data set: solubility in G1/S (NP-40 vs SDS abundance) (log2 ratio); higher = more soluble. The settings on record: cell cycle stage: G1/S.
In data set [2] the test system is HeLa Kyoto. Kind of data set: melting temperature (median over replicates), in situ; higher = more thermally stable.
Data set [3] concerns HeLa Kyoto. Put plainly: solubility change mitosis vs G1/S (difference of NP-40 vs SDS log2 ratios) (log2 ratio difference); higher = more soluble in mitosis.
Data set [4] concerns HeLa Kyoto. Kind of data set: thermal stability score vs G1/S (z-score of summed log2 fold changes over temperatures); higher = more thermally stable than in G1/S.
The mark [5] stands for this setting: cell cycle stage: early G1 (4.5 h after nocodazole release).

Consider four sequences from the supplement of paper PMC5998384.
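Wherever melting temperature (median over replicates), in situ is given: HeLa Kyoto cells synchronized by double thymidine or nocodazole block, proteins quantified by TMT10plex mass spectrometry, three independent biological replicates.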
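Wherever solubility change mitosis vs G1/S (difference of NP-40 vs SDS log2 ratios) is given: synchronized HeLa Kyoto cells (double thymidine block for G1/S, nocodazole release for mitosis), protein amounts in NP-40 versus SDS lysates quantified by mass spectrometry, three biological replicates.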
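Wherever solubility in G1/S (NP-40 vs SDS abundance) is given: HeLa Kyoto cells arrested at G1/S by double thymidine block, proteins quantified by TMT10plex mass spectrometry in mild NP-40 versus SDS extracts, three biological replicates.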
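Wherever thermal stability score vs G1/S (z-score of summed log2 fold changes over temperatures) is given: synchronized HeLa Kyoto cells, proteins quantified by TMT10plex mass spectrometry, three biological replicates, mitosis taken 0.5 h after nocodazole release, G1/S directly after double thymidine block.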

Take “MNEAMATDSPRRPSRCTGGVVVRPQAVTEQSYMESVVTFLQDVVPQAYSGTPLTEEKEKIVWVRFENADLNDTSRNLEFHEIHSTGNEPPLLIMIGYSDGMQVWSIPISGEAQELFSVRHGPIRAARILPAPQFGAQKCDNFAEKRPLLGVCKSIGSSGTSPPYCCVDLYSLRTGEMVKSIQFKTPIYDLHCNKRILVVVLQEKIAAFDSCTFTKKFFVTSCYPCPGPNMNPIALGSRWLAYAENKLIRCHQSRGGACGDNIQSYTATVISAAKTLKSGLTMVGKVVTQLTGTLPSGVTEDDVAIHSNSRRSPLVPGIITVIDTETVGEGQVLVSEDSDSDGIVAHFPAHEKPVCCMAFNTSGMLLVTTDTLGHDFHVFQILTHPWSSSQCAVHHLYTLHRGETEAKVQDICFSHDCRWVVVSTLRGTSHVFPINPYGGQPCVRTHMSPRVVNRMSRFQKSAGLEEIEQELTSKQGGRCSPVPGLSSSPSGSPLHGKLNSQDSYNNFTNNNPGNPRLSPLPSLMVVMPLAQIKQPMTLGTITKRTGPYLFGAGCFSIKAPCKVKPPPQISPSKSMGGEFCVAAIFGTSRSWFANNAGLKREKDQSKQVVVESLYIISCYGTLVEHMMEPRPLSTAPKISDDTPLEMMTSPRASWTLVRTPQWNELQPPFNANHPLLLAADAVQYYQFLLAGLVPPGSPGPITRHGSYDSLASDHSGQEDEEWLSQVEIVTHTGPHRRLWMGPQFQFKTIHPSGQTTVISSSSSVLQSHGPSDTPQPLLDFDTDDLDLNSLRIQPVRSDPVSMPGSSRPVSDRRGVSTVIDAASGTFDRSVTLLEVCGSWPEGFGLRHMSSMEHTEEGLRERLADAMAESPSRDVVGSGTELQREGSIETLSNSSGSTSGSIPRNFDGYRSPLPTNESQPLSLFPTGFP [BCAS3]”: the “solubility in G1/S (log2)” value in data set [1] is -0.0403. Further, the results for the melting temperature in data set [2] (cell cycle stage: G1/S) and in data set [2] (cell cycle stage: mitosis) were 52.9 °C and 52.2 °C, respectively. Also, the “solubility change mitosis (log2)” value in data set [3] was -0.229. Besides, the thermal stability score in data set [4] (setting [5]) is -0.731; in data set [4] (cell cycle stage: mitosis), -1.02.
Consider “MNEEYDVIVLGTGLTECILSGIMSVNGKKVLHMDRNPYYGGESASITPLEDLYKRFKIPGSPPESMGRGRDWNVDLIPKFLMANGQLVKMLLYTEVTRYLDFKVTEGSFVYKGGKIYKVPSTEAEALASSLMGLFEKRRFRKFLVYVANFDEKDPRTFEGIDPKKTTMRDVYKKFDLGQDVIDFTGHALALYRTDDYLDQPCYETINRIKLYSESLARYGKSPYLYPLYGLGELPQGFARLSAIYGGTYMLNKPIEEIIVQNGKVIGVKSEGEIARCKQLICDPSYVKDRVEKVGQVIRVICILSHPIKNTNDANSCQIIIPQNQVNRKSDIYVCMISFAHNVAAQGKYIAIVSTTVETKEPEKEIRPALELLEPIEQKFVSISDLLVPKDLGTESQIFISRTYDATTHFETTCDDIKNIYKRMTGSEFDFEEMKRKKNDIYGED [GDI2]”, for which, in data set [1], the “solubility in G1/S (log2)” value worked out at 0.218. In addition, the melting temperature in data set [2] (cell cycle stage: G1/S) is 55.2 °C; in data set [2] (cell cycle stage: mitosis), 54.7 °C. The “solubility change mitosis (log2)” value in data set [3] was -0.174. Further, the values for the thermal stability score in data set [4] (setting [5]) and in data set [4] (cell cycle stage: mitosis) were -1.03 and -0.13, respectively.
With “MNFLRGVMGGQSAGPQHTEAETIQKLCDRVASSTLLDDRRNAVRALKSLSKKYRLEVGIQAMEHLIHVLQTDRSDSEIIGYALDTLYNIISNEEEEEVEENSTRQSEDLGSQFTEIFIKQQENVTLLLSLLEEFDFHVRWPGVKLLTSLLKQLGPQVQQIILVSPMGVSRLMDLLADSREVIRNDGVLLLQALTRSNGAIQKIVAFENAFERLLDIISEEGNSDGGIVVEDCLILLQNLLKNNNSNQNFFKEGSYIQRMKPWFEVGDENSGWSAQKVTNLHLMLQLVRVLVSPTNPPGATSSCQKAMFQCGLLQQLCTILMATGVPADILTETINTVSEVIRGCQVNQDYFASVNAPSNPPRPAIVVLLMSMVNERQPFVLRCAVLYCFQCFLYKNQKGQGEIVSTLLPSTIDATGNSVSAGQLLCGGLFSTDSLSNWCAAVALAHALQENATQKEQLLRVQLATSIGNPPVSLLQQCTNILSQGSKIQTRVGLLMLLCTWLSNCPIAVTHFLHNSANVPFLTGQIAENLGEEEQLVQGLCALLLGISIYFNDNSLESYMKEKLKQLIEKRIGKENFIEKLGFISKHELYSRASQKPQPNFPSPEYMIFDHEFTKLVKELEGVITKAIYKSSEEDKKEEEVKKTLEQHDNIVTHYKNMIREQDLQLEELRQQVSTLKCQNEQLQTAVTQQVSQIQQHKDQYNLLKIQLGKDNQHQGSYSEGAQMNGIQPEEIGRLREEIEELKRNQELLQSQLTEKDSMIENMKSSQTSGTNEQSSAIVSARDSEQVAELKQELATLKSQLNSQSVEITKLQTEKQELLQKTEAFAKSVEVQGETETIIATKTTDVEGRLSALLQETKELKNEIKALSEERTAIKEQLDSSNSTIAILQTEKDKLELEITDSKKEQDDLLVLLADQDQKILSLKNKLKDLGHPVEEEDELESGDQEDEDDESEDPGKDLDHI [USO1]”, the “solubility in G1/S (log2)” value in data set [1] is 0.289. For the same sequence, the melting temperature in data set [2] (cell cycle stage: G1/S) amounted to 51.2 °C; in data set [2] (cell cycle stage: mitosis) it was 50.6 °C. For the same sequence, in data set [3], the “solubility change mitosis (log2)” value is -0.0652. Besides, the thermal stability score in data set [4] (setting [5]) was determined as 2.79; in data set [4] (cell cycle stage: mitosis) it was 1.73.
On to “MNFRQLLLHLPRYLGASGSPRRLWWSPSLDTISSVGSWRGRSSKSPAHWNQVVSEAEKIVGYPTSFMSLRCLLSDELSNIAMQVRKLVGTQHPLLTTARGLVHDSWNSLQLRGLVVLLISKAAGPSSVNTSCQNYDMVSGIYSCQRSLAEITELIHIALLVHRGIVNLNELQSSDGPLKDMQFGNKIAILSGDFLLANACNGLALLQNTKVVELLASALMDLVQGVYHENSTSKESYITDDIGISTWKEQTFLSHGALLAKSCQAAMELAKHDAEVQNMAFQYGKHMAMSHKINSDVQPFIKEKTSDSMTFNLNSAPVVLHQEFLGRDLWIKQIGEAQEKGRLDYAKLRERIKAGKGVTSAIDLCRYHGNKALEALESFPPSEARSALENIVFAVTRFS [PDSS2]”, for which the “solubility in G1/S (log2)” value in data set [1] was determined as 0.217. The figures for the melting temperature in data set [2] (cell cycle stage: G1/S) and in data set [2] (cell cycle stage: mitosis) were 53.5 °C and 54.1 °C, respectively. The “solubility change mitosis (log2)” value in data set [3] worked out at 0.169. In addition, the figures for the thermal stability score in data set [4] (setting [5]) and in data set [4] (cell cycle stage: mitosis) were 0.42 and -0.202, respectively.
